According to PMC3486911 (PLoS Pathogens, 2012):

Legend:
[1] = target: Factor H binding protein, variant group 1 (V1.p1), wild type (Neisseria meningitidis) (UniProt Q9JXV4); experiment: SPR
[2] = target: V2 fHbp Glu283Ala (Neisseria meningitidis); experiment: SPR
[3] = target: V2 fHbp Thr304Glu (Neisseria meningitidis); experiment: SPR
[4] = target: V1 fHbp E283A (Neisseria meningitidis); experiment: SPR
[5] = target: V2 fHbp with Glu313 replaced by Ala (Neisseria meningitidis); experiment: SPR
[6] = target: V2 fHbp with Val272 replaced by Ala (Neisseria meningitidis); experiment: SPR
[7] = target: V1 fHbp I311A (Neisseria meningitidis); experiment: SPR
[8] = target: V2 fHbp with Ala at position 157 (Neisseria meningitidis) (UniProt E6MV22); experiment: SPR
[9] = target: V2 fHbp with Leu195 replaced by Ala (Neisseria meningitidis); experiment: SPR
[10] = target: V2 fHbp Thr304Ala (Neisseria meningitidis); experiment: SPR
[11] = target: V3 fHbp P106A (Neisseria meningitidis); experiment: SPR
[12] = target: Factor H binding protein, variant group 3 (V3.p28), wild type (Neisseria meningitidis) (UniProt E6MV22); experiment: SPR
[13] = target: V3 fHbp with Val272 replaced by Ala (Neisseria meningitidis); experiment: SPR
[14] = target: V1 fHbp with Val272 replaced by Ala (Neisseria meningitidis); experiment: SPR
[15] = target: Factor H binding protein, variant group 2 (V2.p21), wild type (Neisseria meningitidis) (UniProt E6MV22); experiment: SPR
[16] = target: Factor H binding protein, variant group 3 (V3.p28), wild type (UniProt E6MV22); experiment: SPR
[17] = target: Factor H binding protein, variant group 2 (V2.p21), wild type (UniProt E6MV22); experiment: SPR
[18] = target: T1, Factor H binding protein, variant group 1 (V1.p1), wild type (Neisseria meningitidis, UniProt Q9JXV4 20-274); experiment: SPR; details: both partners purified
T1 construct: also called V1 fHbp; fHbp
T1 sequence: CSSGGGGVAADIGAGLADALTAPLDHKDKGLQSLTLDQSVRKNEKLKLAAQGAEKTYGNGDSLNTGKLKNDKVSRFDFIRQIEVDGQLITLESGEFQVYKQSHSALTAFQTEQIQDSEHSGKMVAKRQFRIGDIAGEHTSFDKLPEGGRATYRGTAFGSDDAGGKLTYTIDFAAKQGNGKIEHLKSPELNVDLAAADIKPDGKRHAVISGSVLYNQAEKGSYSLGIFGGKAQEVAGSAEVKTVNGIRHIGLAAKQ

[19] = target: T1, Factor H binding protein, variant group …; experiment: not stated; dose response curve of mfH67 binding V1 fHbp (Fig. S2); details: both partners purified

Molecule: human fH67 with His337 and Arg341 replaced by the murine residues (domain or fragment)
- Kd [1]: 7000 nM

Molecule: human factor H CCP domains 6 and 7 (domain or fragment)
- fold increase in KD relative to wild type [2]: 40 fold
- fold increase in KD relative to wild type [3]: 200 fold
- Kd [1]: 2.2 nM
- fold increase in KD relative to wild type [4]: 7 fold
- fold reduction in binding relative to wild type [5]: > 5 fold
- fold reduction in binding relative to wild type [6]: > 5 fold
- Kd [7]: 1300 nM
- fold increase in binding relative to wild type [8]: 5 fold
- fold reduction in binding relative to wild type [9]: > 5 fold
- fold increase in KD relative to wild type [10]: 10 fold
- fold increase in strength of binding relative to wild type [11]: 100 fold
- Kd [12]: 2.8 nM
- fold reduction in binding relative to wild type [13]: > 5 fold
- fold reduction in binding relative to wild type [14]: > 5 fold
- Kd [15]: 1.9 nM

Molecule: human factor H CCP domains 6 and 7 K351R; Y352K
- Kd [16]: 33000 nM
- Kd [17]: 44000 nM

B1: human fH67 with Lys351 and Tyr352 replaced by the murine residues (domain or fragment)
chain: TLKPCDYPDIKHGGLYHENMRRPYFPVAVGRKYSYYCDEHFETPSGSYWDHIHCTQDGWSPAVPCLRKCYFPYLENGYNQNHGRKFVQGKSIDVACHPGYALPKAQTTVTCMENGWSPTPRCI
- Kd [18]: 2800 ± 500 nM

B2: murine factor H CCP domains 6 and 7 (domain or fragment)
chain: LKPCEFPQFKYGRLYYEESLRPNFPVSIGNKYSYKCDNGFSPPSGYSWDYLRCTAQGWEPEVPCVRKCVFHYVENGDSAYWEKVYVQGQSLKVQCYNGYSLQNGQDTMTCTENGWSPPPKCI
notes: also called mfH67; mfH; source: cloned into pET-15b; expressed and purified using the method described previously [40]
- fold higher KD than hfH [19]: > 10000 fold
